The source of these data is patent publication US20070202134A1, “Muc1 Antagonist Enhancement of Death Receptor Ligand-Induced Apoptosis” (priority 2004, published 2007).

The test system of this assay is HCT116/vector cells. Description: Apoptosis by analysis of sub-G1 DNA, HCT116/vector cells. Particulars: 100 ng/ml TRAIL for 14 hr, without adding CHX. The format is cell-based, Human. On the procedure:
Methods. Apoptotic cells were quantified by analysis of sub-G1 DNA and TUNEL staining. To assess sub-G1 DNA content, cells were harvested, washed with PBS, fixed with 80% ethanol, and incubated in PBS containing 20 ng/ml RNase (Roche) for 60 min at 37° C. Cells were then stained with […] propidium iodide (Sigma) for 30 min at room temperature in the dark. DNA content was analyzed by flow cytometry (EPICS XL-MCL, Coulter Corp.). Apoptotic cells with DNA fragmentation were detected by staining with the In Situ cell death detection kit (TUNEL; Roche Applied Science) and visualized by confocal microscopy (ZEISS LSM510). After staining, cells were analyzed by flow cytometry. Other experimental procedures and methods were as described in Example 1.

B1: TRAIL: TNF-related apoptosis-inducing ligand, rhTRAIL (Calbiochem-Novabiochem) (protein, UniProt P50591 1-281, looked up)
Tumor necrosis factor ligand …: MAMMEVQGGPSLGQTCVLIVIFTVLLQSLCVAVTYVYFTNELKQMQDKYSKSGIACFLKEDDSYWDPNDEESMNSPCWQVKWQLRQLVRKMILRTSEETISTVQEKQQNISPLVRERGPQRVAAHITGTRGRSNTLSSPNSKNEKALGRKINSWESSRSGHSFLSNLHLRNGELVIHEKGFYYIYSQTYFRFQEEIKENTKNDKQMVQYIYKYTSYPDPILLMKSARNSCWSKDAEYGLYSIYQGGIFELKENDRIFVSVTNEHLIDMDHEASFFGAFLVG
For B1, the induction of apoptosis result was “effective in inducing apoptosis”.
